{"source": "the DeepSol protein solubility set"}
{"assay": "soluble on expression in E. coli; label from the status in PepcDB or PDB records"}
{"sequence": "MGSSHHHHHHSSGRENLYFQGHMSKFVITCIAHGENLPKETIDQIAKEITESSAKDVSINGTKKLSARATDIFIEVAGSIVQKDLKNKLTNVIDSHNDVDVIVSVDNEYRQAKKLFVFDMDSTLIYQEVIELIAAYAGVEEQVHEITERAMNNELDFKESLRERVKLLQGLQVDTLYDEIKQKLEVTKGVPELCKFLHKKNCKLAVLSGGFIQFAGFIKDQLGLDFCKANLLEVDTDGKLTGKTLGPIVDGQCKSETLLQLCNDYNVPVEASCMVGDGGNDLPAMATAGFGIAWNAKPKVQKAAPCKLNTKSMTDILYILGYTDDEIYNRQ", "soluble on expression in E. coli": "soluble"}
{"sequence": "MNFRLSEEHEMLRKMVREFAENEVAPTAAERDEEERFDRGIFNKMAELGLTGIPWPEEYGGIGSDYLAYVIAVEELSRVCASTGVTLSAHISLASWPIYKFGNEEQKQKYLRALATGEKLGAYALSEPGAGSDVASMKTRAVKDGDHYILNGSKVWITNGGEAEIYVVFAVTDPEKRHKGISAFIVEKGTPGFSFGKKEKKLGIRSSPTTELIFEDCRIPKENLLGQEGEGFKIAMMTLDGGRNGIAAQAVGIAQGALDAAVDYAKQRVQFGKPIIEQQGVAFKLADMATAIEAARLLTYQAAWLESNGLPYGKASAMAKLFAGDTAMKVTVEAVQIFGGNGYTKDYPVERFMRDAKITQIYEGTQEIQRLVISRMLTRN", "soluble on expression in E. coli": "soluble"}
{"sequence": "SNAMKFSEFRYERPDIAQLQASFQEALDSFRRAGSAALQHEAMKRINELRRRYSTMANLCHIRHTIDTNDEFYKKEQDFFDETEPVVKGLVNDYYRALVSSPFRAELEQVWGKQLFALAETQLKTYAPVIVEDLQKENKLASEYTKLIASAKIMFEGEERTLAQLQPFVESPDRAMRQRASEARFSFFKDYEKELDELYDELVHVRTAIARKLGFQNFVELGYARLGRTDYNADMVAGYRRQVKTHIVPLAAKLRERQRQRIQVEKLYYYDEPFMFPTGNPTPKGDADWIVQNGRQMYEELSPETGEFFRYMVEHELMDLVAKKGKAGGGYCTYIDDYKAPFIFSNFTGTSGDIDVLTHEAGHAFQVYESRHYDIPEYNWPTLEACEIHSMSMEFFTWPWMELFFGEDADKYRFAHLSDALLFLPYGVAVDEFQHAVYENPDMTPAERKSVWRNIEKAYLPTRDYADHDYLERGGFWQRQGHIYTDPFYYIDYTLAQVCAFQFWKRAQEDRASAWRDYVALCRLGGSRPFTELVKSANLQSPFADGAVASVVGHIERWLDSVDDKAL", "soluble on expression in E. coli": "soluble"}
{"sequence": "MGSDKIHHHHHHMNTKKESALSFPSAGIESFGERLKELMGDESLRAFANAIDTSEGGVRKWFTQSTMPSFDKMVRIARRYNVNLEWLCTGEGPKFPGETAAYESVICKTEEFSEEYALIDGYHTQVSTGHGAQWDNERVRRKLAFRSKWLRYRGLQPENLRVVFAKGDSMEPTIHSGDSILVDITDANLSDGSIFVLRIGDDLFAKRVQVHIDGSITIISDNKEYREQRVPVAELGLLSVVGKVVWIGKDVK", "soluble on expression in E. coli": "not soluble"}
{"sequence": "MVTEAMKAKAEVYHGDKTCREKFGSLLSEIGLPNRLLSNKEIKECGYVKDTGFVWLKHKEKKKEDQKRRYQDLLRFDNVVVCFEDEVTAYFEPNRIKKLTGVKAKEFMVWISLGEIQVNRSSGLITFKTEVGLLSKSLPLSVFEDVHGDDHDLKEKPKKELKLNKTKIYLY", "soluble on expression in E. coli": "not soluble"}
{"sequence": "MSELLAGTKLINQDSEELDAGEHLKGKVVGLYFSASWCPPCRQFTPKLTRFFDEIRKKHPEFEVVFVSRDREDGDLREYFLEHMGAWTAIPFGTPRIQELLEQYEVKTIPSMRIVKPNGDVVVQDARTEIQDKGNDPEALWEEWLAFYD", "soluble on expression in E. coli": "not soluble"}
{"sequence": "MPGIDKLPIEETLEDSPQTRSLLGVFEEDATAISNYMNQLYQAMHRIYDAQNELSAATHLTSKLLKEYEKQRFPLGGDDEVMSSTLQQFSKVIDELSSCHAVLSTQLADAMMFPITQFKERDLKEILTLKEVFQIASNDHDAAINRYSRLSKKRENDKVKYEVTEDVYTSRKKQHQTMMHYFCALNTLQYKKKIALLEPLLGYMQAQISFFKMGSENLNEQLEEFLANIGTSVQNVRREMDSDIETMQQTIEDLEVASDPLYVPDPDPTKFPVNRNLTRKAGYLNARNKTGLVSSTWDRQFYFTQGGNLMSQARGDVAGGLAMDIDNCSVMAVDCEDRRYCFQITSFDGKKSSILQAESKKDHEEWICTINNISKQIYLSENPEETAARVNQSALEAVTPSPSFQQRHESLRPAAGQSRPPTARTSSSGSLGSESTNLAALSLDSLVAPDTPIQFDIISPVCEDQPGQAKAFGQGGRRTNPFGESGGSTKSETEDSILHQLFIVRFLGSMEVKSDDHPDVVYETMRQILAARAIHNIFRMTESHLLVTCDCLKLIDPQTQVTRLTFPLPCVVLYATHQENKRLFGFVLRTSSGRSESNLSSVCYIFESNNEGEKICDSVGLAKQIALHAELDRRASEKQ", "soluble on expression in E. coli": "not soluble"}
{"sequence": "MSLTELLNNLEYKKEQLKKLLLRIHEGESVEKLKEEFRTVLSNISPLEIPLIEQELVKEGISARDIAKMCDLHVELFREAVKGTGEVEEKDLPEGHPLKTLYQENKEIMKDAEMLNLYAKTLATTKDERMREEILGVLEEIVSSLRMVGFTHYNREEMLIFPYIERRGLTVIATVLWTKHDEIRAMIKQLAELLRKREEMPWEEFVEKFKAKAGEVAFALSDMVFRENNIFYPTLKALLSEGEWKAIKMQEDEIGYYKVKPPEWDPGEDVKPLHPWEINPELNVEQLLTLPKEVQQALRGQPLEFDKTQLKREEDIDLGTGYLNIEELKAIFEALPVDVTFIDKDDRVRFFSPGERIFTRTPSVLGRPVQLCHPPKSVYVVNKILKAFKEGRKKEATFWLRLREKYVYIKYVPLFNEKGEYIGTLEMTMDIAPYKKIEGEKRLLDWRDEGHHHHHH", "soluble on expression in E. coli": "soluble"}
{"sequence": "MKPSHQQQKQASAAKDEKKDIIPLSAEKADGAEGWLNNSTILYTASNPTKTELFPYRIFTGKAKKLYQTDGQIVDVQINAREQMILLQITHSQKTAVVLLNAEGETLYEKDYETYELEAAWNQYDPYQMMVTEFNENWDFHTYQVNAKKDESFLSPVQVPFIHWTSKNTFDYVKEGRDDKTGPLYTFDTASKTEQKLEDNVLFFDSFHQMSFTVKSASGGKGTYQFKTPQSTSPVTAKWPLQAKYTSLAPMEYDYDEAGSLFYTFKQSGDAYKLAAINVASGETKDLVSLREMEPIQISPNGKYALYGFHFEQIILLKSHETKQLIIDQKEMELEHHHHHH", "soluble on expression in E. coli": "soluble"}
{"sequence": "MGSDKIHHHHHHMTAALPAGSDLVIVLPHLGPGGAQKVALMAAEHFLVQGRQVTLVTLLPDKPLSHAVPEGLRWVDLGPAVAETTSNRAPIARIWRFSCTWGRRSLAWISLVIGWKVLKRLVPGQAPLFVQWLVSSASGVQATLLRDLLYAGKPARVLSLLTRTNLLCCQAMWALPGHLVVSERNDPRLQKQSFPWLRLRSWLWQRADVITANTIGVLEGLQHCHPAMADDMRLLPNPLVVDSHPGNHSDEPASGTCFLAVCRLVPQKGIDLLIQAYAQLPEPLREMWPLLIAGDGPERASLETLASSLLPRGQVRFMGFQRNPQVLYHRDAVFVLSSRFEGMPNSLLEAMGSGLAVIVSDASPGPLEVVVHGKSGWVVPTEKVTLLAEAMQAMAENPALRCRLGDAAAEFMDAYSWDTLDPIWSDILCLEKPG", "soluble on expression in E. coli": "not soluble"}
{"sequence": "MLSGDLAEFPFPSLVGALMSAGRTGRLHLRPPFLEAEVYLRGGQVVHAKAQAGERALEGEEALDLLVGLRRAPFVFEPEALPPHTTLLGGLEVPARLAQAQAAWEKVKLPADWGLRLRLPREGSAVELPPEALGLLARVEGKRIAEVLLAPGVLRQARVLSTLLEVGALEAYPEVDLPPEPLVVLPIYGPGSGVAYVDEALYAQWARAIRRGFRVRLLPLGAVLEVRPRPNLQGRVGLMEEDLKRLRLRRGDKVEAVPKV", "soluble on expression in E. coli": "soluble"}
{"sequence": "MGSDKIHHHHHHMPSTNPFLTLPYEPAFASLGSEFSDPVEAATFPAHQLRFRNDRLLPILGLDPATVTDEHFIEAFGRFQGRSPLLAMRYHGYQFGIYNPDLGDGRGFLYGQVRGRNGWLYDFGTKGSGRTPYSRGGDGKLTLKGGVREVLASEFLQRLGVRTGRCLSLIETGEELWRGDEPSPTRSSVMVRFNRTHIRFGTFERLHYFKRADLVRQLLDHVIATYYSHLLGDPEADAKFYAELTERTADLAAQWMAAGFCHAVLNTDNLSIVGESFDYGPWAFLDRFDPKFTAAYFDHSGRYRYENQPGICQLNLELLQVPLGMVMSAADLEAGIAGFGDRYQATYSRLMLRRLGFEADQLHSAIADDLIITTLQLLLRAPIGYNEFFARLRAQFQPSWRSDLSAILPDWITTDLEALPEAQWQGWRDRYHQLLTHLPESQLPLIQQQLAQANPEIAPIRPVVESVWDPIAIDDNWEPLEALLNRWRHDGDGAADGVVVPNAN", "soluble on expression in E. coli": "not soluble"}
{"sequence": "MTIREEGLIVKDQVLSCYLKGKRCLFVIVKILKDSSNSFLCTVQNKNGDQYVKKWFRKHENNEKLGRPTFKEVEKDWKENKESFMYPNVKALY", "soluble on expression in E. coli": "not soluble"}
{"sequence": "RALDTEDIQKVFTKLPQSSAVTSDMRRTQELFVLMFLLRGLPFVDLAYLRKSDLHDNVITYRRRKTGRPLSVTLTPEAMAILKRYMNRDTSSPYLFPLLNSREGTKEAYHEYQLALRNFNRQLMLLGEMLGLGDKLSSYTARHTWATTAYYCEIHPGVISEAMGHSSITVTETYLKPFRNKKIDEANKKVVDFIKRSIPIAMC", "soluble on expression in E. coli": "not soluble"}
{"sequence": "MIITIPIKNQKDIGTPSDSVVVLGYFDGIHKGHQELFRVANKAARKDLLPIVVMTFNESPKIALEPYHPDLFLHILNPAERERKLKREGVEELYLLDFSSQFASLTAQEFFATYIKAMNAKIIVAGFDYTFGSDKKTAEDLKNYFDGEVIIVPPVEDEKGKISSTRIRQAILDGNVKEAGKLLGAP", "soluble on expression in E. coli": "not soluble"}
{"sequence": "MGSDKIHHHHHHMIGIEQYQKIQEYKELGLAQTKTAKALGITYSSVSKYWNMSEEDYVREAEQEKYHMDNYRQYILEQLKICPQIRDTNVYLKLMEAFPDLQVKRATFYRYMKALREQHGYQHTSKRKISPREVSPPGYEAQADFGQYKLKDMYGRIVRVYFFCMVLSYSRMKFVCFSPDPFTTKTGIKVHNYAFQCVWQV", "soluble on expression in E. coli": "not soluble"}
{"sequence": "MSLEYARRQALAREGLSAAGLDALIVTGPENIFYLCGQQTPGYYTFQALILPADGDPVFLIRQLEYFNFIANTFISDAVVYQDGEDPLALLVKLIESRGLASRRIAIDKRGWFLPIAVYEALQARLGTIGDGAGVIERFRAIKSPLEVEKLEKAAAYVDEGMRAGLAAVRVGATENDLVSAMLGSAIAAGSEYLGMEPLVSVGPRTGVPHGTWRRRAITDGDPAFLEMAACHDRYHAALMRSAWIGEPPREAVDMMKACQEALQVSLDTIRPGVACEVPHIACQKVIDRAGYTDNFKKRLGYSVGISFAPDWGEGAILSLNTGVKTELQPGMTFHLPPALRIYGRFTVGVSETIVVTETGYRALGSIDRNLLIVEGHHHHHH", "soluble on expression in E. coli": "soluble"}
{"sequence": "MVRDMRFCYRCGISEEEGGPLINGLCQVCFRKENPVLLLPSEINTELCQNCGSYKKRGVWVDPKNYELEALIFEVAENALLEALEDNLKVKDFEVVNWEELDEISEIPVGKAFVAYRVVDYHIEYFPAIVIYEVRSKARIHELQVEPHDERTTVTVYVRQTVCPRCQKFLAGYYEAILQVRVEGREFTKEEREEITKLVQEKVDEIMKRDRMGFIQDTIEKEEGIDFYMGSTSAARKLANAIREKYGGTISEAYELVGMDRQTSREVYRTSVTVRLPKFRKGDVVEDRYGRVYEVEEVNGKGMRLKNLETWKSEHYDWKTIKRERVDLANYEEKKAMLVSKTPSEVQFMDMETYETFEVKKPTDELKEGEVYTVVRVKGRMYVKEEVKELEHHHHHH", "soluble on expression in E. coli": "soluble"}
